This passage reports stoichiometry N, binding result and EC50 results from article PMC11685497 (Nature Communications, 2024).

The target in assay [1] is wild-type soluble CD73 (ecto-5'-nucleotidase), recombinant (human). As to the kind of experiment: cryo-EM structure.
The target in assay [2] is T1, wild-type soluble CD73 (ecto-5'-nucleotidase), recombinant (Homo sapiens).
T1 chain: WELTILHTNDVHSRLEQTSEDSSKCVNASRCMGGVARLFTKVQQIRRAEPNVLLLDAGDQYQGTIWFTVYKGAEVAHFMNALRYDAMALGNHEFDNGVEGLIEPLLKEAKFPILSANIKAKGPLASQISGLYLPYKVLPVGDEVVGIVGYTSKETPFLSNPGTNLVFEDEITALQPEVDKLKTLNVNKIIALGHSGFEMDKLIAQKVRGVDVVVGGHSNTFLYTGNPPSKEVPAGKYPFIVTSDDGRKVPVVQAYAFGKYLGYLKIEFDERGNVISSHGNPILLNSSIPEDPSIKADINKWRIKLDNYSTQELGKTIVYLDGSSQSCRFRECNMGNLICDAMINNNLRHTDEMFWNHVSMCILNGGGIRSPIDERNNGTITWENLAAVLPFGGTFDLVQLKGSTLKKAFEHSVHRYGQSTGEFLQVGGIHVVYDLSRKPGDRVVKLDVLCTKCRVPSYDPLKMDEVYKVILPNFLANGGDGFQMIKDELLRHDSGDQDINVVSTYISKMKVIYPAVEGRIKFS
The assay can be described thus: HDX-MS.

The target in assay [3] is human CD73, membrane-bound, on CHO-K1 cells (CHO-K1-huCD73-3F4) (Homo sapiens, UniProt P21589). The assay can be described thus: flow cytometry on cells. A general note: In flow cytometry, cells or beads pass a laser one at a time.
For assay [4], the target named is T1, wild-type soluble CD73 …. As to the kind of experiment: negative-stain EM.

Regarding “wild-type soluble CD73 (ecto-5'-nucleotidase), recombinant (enzyme)”, the stoichiometry N in assay [1] was determined as 2.

B1: HB0039 Fab (Fab, V domains shown)
VH: QVQLVQSGAEVKKPGASVKLSCKASGYTFTSYWIHWVRQAPGQGLEWIGMIHPNSGSTYYNEKFKGRATLTVDKSTSTAYMELSSLRSEDTAVYYCARYYGSDYEWYFDVWGQGTTV
VL: IQMTQSPSSMSASVGDRVTITCKASQNVRTAVVWYQQKPGKAPKALIYLASNRHTGVPDRFSGSGSGTDFTLTISSLQPEDFATYFCLQHWNYPYTFGQGTKL
For the molecule B1, in assay [2], the binding result was “binds”.

B2: HB0039 (humanized anti-human CD73 monoclonal IgG1, L234A/L235A) (antibody, V domains shown)
VH: B1 VH
VL: B1 VL
B2 gave an EC50 in assay [3] of 0.24 nM. Further, the binding result in assay [4] was “binds”.

B3: HB0038 (humanized anti-human CD73 monoclonal IgG1, L234A/L235A) (antibody, V domains shown)
VH: QVQLVESGGGLVKPGGSLRLSCAASGFTFSKYAMSWIRQAPGKGLEWVAEISSGGGYINYADSVKGRFTISRDNAKNSLYLQMNSLRAEDTAVYYCARAIYYYGSSYNYYAMDYWGQGTTVTVS
VL: DIQMTQSPSSLSASVGDRVTITCRASQDVGTAEAWYQQKPGKAPKLLIYWASTRHTGVPSRFSGSGSGTDFTLTISSLQPEDFATYYCQQYSSYPLTFGQGTKL
The molecule B3 displayed an EC50 in assay [3] of 11.8 nM. Besides, in assay [2], the binding result was “binds”.

B4: HB0038 Fab (Fab, V domains shown)
VH: B3 VH
VL: B3 VL
With B4, in assay [4], the binding result is on record as “binds”.

As a reminder, the stoichiometry N is a count of units in the complex or per binding partner. The term EC50 denotes the concentration that produces a half-maximal response. Low values mean greater potency, high ones weaker potency.
